In patent US20160053277A1, “Compositions Having Dicamba Decarboxylase Activity and Methods of Use” (PIONEER HI-BRED INTERNATIONAL, INC., priority 2013, published 2016):

B1: 19 (protein, listed as Talaromyces marneffei)
chain: MATPIITLEEHYISSAIRDASETDHYAVFPSQIISKLNTLSTERLQDLDNGHVSLQVISHGPGAQPPYLCQAANDELASAISANPTRFAGFALLPIAEPQLAVQELERCITQHKFVGALIDNHTNGQFYDDQKFWPVFEKAQELDAPIYVHPSYPDEESGVAAHYRGNYDDRIAAALGAYGWGWHSDTALSILRLFAAGLFDTYPNIKIIIGHMGEMLPFQLERVIGIASRFGRSRGLREVWTQNIWVTTSGMFALAPLACLLQTMPIERVLYSVDYPFSANEKGFAFLEEIKKSGLIKEGEDWERFLYKNAQELLKVNV
B2: 37 (protein, listed as Burkholderia gladioli)
chain: MATFSNVKKIALEEHFAIAETIEDSAGFVPPDDWVELRGRLLDIQERRLAEMDRAGIELMVLSLNAPAVQAIRDPRQAVELARRANDYLAEQVARRPDRFRAFAALPMQAPEQAIREAERCVRELGFVGALVNGFSEAEDGAELYYDLPRYRPFWAALEALEVPFYLHPRNPLAGRAPIYDGHSWLMGPTWAFGQETAVHALRLMGSGLFDAHPRLQIILGHMGEGLPYSMWRVDNRNAWVSAKPNYPAEKPIAEYFRNNFWLTTSGNFRTQTLIDAMLEIGSDRILFSADWPFENMDHAADWFDHASISENDRIKIGRGNAERLLKLGR
B3: 22 (protein, listed as Staphylococcus epidermidis)
chain: MAKSINFEEHYVVDDIQKETMKYMSSDPNGVPMQTMLKGLEQKSGFTNADDITKHDERIKFMDEHDVEMQVLSYGNGAPSNLEGERAIELCQQANDTLAKYVNEHPDRFVGFATLPINEPQAAVEEFKRCIKELGFKGALIMGHPKNGFLDQDQYDDLFATAEALNVPIYLHPSPVQSDVYQAYYKGNYSDVTAATFACFGYGWHVDVGIHAIHLVLSGVFDRHPNLNMIIGHWGEFVPFFLERMDDILFADHLEHPISYYFKNNFYITPSGMLTKPQFDLVKAEVGVDRILYSADYPYVEPDKLGTFLDELDLTEEEKEKISYKNGAKLLGLEK
B4: 21 (protein, listed as Agrobacterium tumefaciens)
chain: MAQGKVALEEHFAIPETLQDSAGFVPGDYWKELQHRLLDIQDTRLKLMDAHGIETMILSLNAPAVQAIPDRKKAIEIARRANDVLAEECARRPDRFLAFAALPLQDPDAATQELQRCVNDLGFVGALVNGFSQEGDGQTPLYYDLPQYRPFWGEVEKLDVPFYLHPRNPLPQDSRIYDGHPWLLGPTWAFAQETAVHALRLMASGLFDAHPRLNIILGHMGEGLPYMMWRIDHRNAWVKLPPRYPAKRRFVDYFNENFHITTSGNFRTQTLIDAILEIGADRILFSTDWPFENIDHASDWFNATTIAEADRVKIGRTNARRLFKLDGR
B5: 38 (protein, listed as Variovorax paradoxus)
chain: MAQGKIGLEEHFAIPQTLQDSAGFVPGVYWKELSSRLLDIHDGRLRQMDEHGMEMMILSLNAPAVQAVADPVKAYELAVRANDFLAEQVAKRPDRFQAFAALPMQDPEKATQELERCMSVLGFRGALVNGFSQVGTPDNVAYYDAPQYAPFWAAAERLDAPFYLHPRNPIASWAQIYEGHPWLLGPTWAFAQETAVHALRLMASGLFDRHPGLKIILGHLGEGLPYNMWRVDHRNAWVKAPKGYPAKRKLCEYFQENFYLTTSGNFRTQTLIDAMLEVGSDRILFSTDWPFENIDHASNWFNDTSISEADRKKIGRTNAMSLFKLA
B6: 5 (protein, listed as Staphylococcus aureus)
chain: MAQNNMEANQMKSITFEEHYVIEDIQKETMNAISADPKGVPMKVMLEGLEKKTGFTNADELSHHDERIQFMNNQDVQIQVLSYGNGSPSNLVGQKAIELCQKANDQLANYIAQYPNRFVGFATLPINEPEAAAREFERCINDLGFKGALIMGRAQDGFLDQDKYDIIFKTAENLGVPIYLHPAPVNSDIYQSYYKGNYPEVTAATFACFGYGWHIDVGIHAIHLVLSGIFDRYPKLNMIIGHWGEFIPFFLERMDEALFAEHLNHPVSYYFKNNFYITPSGMLTKPQFDLVKKEAGIDRILYAADYPYIEPEKLGVFLDELGLTDEEKEKISYTNGAKLLGLSSNN
B7: 16 (protein, listed as Staphylococcus aureus)
chain: MAQNNMEANQMKSITFEEHYVIEDIQKETMNAISADPKGVPMKVMLEGLEKKTGFTNADELSHHDERIQFMNNQDVQIQVLSYGNGSPSNLVGQKAIELCQKANDQLANYIAQYPNRFVGFATLPINEPETAAREFERCINDLGFKGALIMGRAQDGFLDQDKYDIIFKTAENLGVPIYLHPAPVNSDIYQSYYKGNYPEVTAATFACFGYGWHIDVGIHAIHLVLSGIFDRYPKLNMIIGHWGEFIPFFLERMDEALFAEHLNHPVSYYFKNNFYITPSGMLTKPQFDLVKKEAGIDRILYAADYPYIEPEKLGVFLDELGLTDEEKEKISYTNGAKLLGLSSNN
B8: 29 (protein, listed as Pseudovibrio sp.)
chain: MAGRRDFLRKSVAAGVGLTAAAQLSAGGAQATVPDTSNIPLITLEEHFTTPELQSKNTSGDKRLFSGGGSRPELLDVGAGRIADMDEAGIDIQVLSTVTPGASKITGAEGVEFTRKFNTWIAEEVIAAYPNRFRAFATLPLSSPEAAADELERSVREYGFVGTMTYGPIDGKFLDHADYAPLLARAEALGVPIYIHPNWPSPTAMQAYYDGLGDDLTSRILSGPGYGWHQEIAVQCLRLIVGGVFDRFPNLQIVVGHMGEGLPFYYWRVGEDLDRIAQKRLQKPVQQYFHDNLWITTSAFFRDELLNLALATMGEDRVMFSVDYPMASAKVGADWLRAADIPLATKEKIGSKNAMKLLGIDKI
B9: 26 (protein, listed as Variovorax paradoxus)
chain: MATHMAPMKNKIALEEHFAIDLTIADSQVYARPEVWQGLKSNLLDFEQQRLEKMDEWGTEFSILSLNSPAVQGIPDAKRAIEVAQRANDVLAEQVKRHPTRFGGFAALPMQDPEASARELERCVNQLGFHGFLVNGFSQVGDENIVVYYDDARFNDFWTAAAALKKPFYMHPRDPLLAREPIYDGAHWLTGPTWAFAMETAIHALRLMSSGMFDRHPALQMILGHFGEGIPFNIWRVDHILRKGRRGMPCDKEIGEYLRSNVHITTSGNFRTPTLLSTMLEVGSDRIMYSVDYPFEKHEDAARWFDTCEISENDRQKIGRDNARKLFGLK

What was measured:
[1] = 14C assay with IPTG-induced recombinant E. coli cells: 14CO2 captured from [14C]-carboxyl-labeled dicamba; conditions: for decarboxylation activity of dicamba: among the 108 sequences tested, recombinant E. coli cells; for Enzymatic Detection level: dicamba decarboxylation activity of the protein of the given SEQ ID NO, High / Low / No; for Dicamba Decarboxylase Activity: induced recombinant E. coli cells, [14C]-carboxyl-labeled dicamba, 14CO2 capture
[2] = Saturation mutagenesis of SEQ ID NO:109: dicamba decarboxylation activity of point mutants (carbon dioxide released); conditions: decarboxylation activity (carbon dioxide released) of point mutant compared with unmutated backbone protein; backbone SEQ ID NO: 109

| Molecule | decarboxylation activity of dicamba [1] | Enzymatic Detection level [1] | Dicamba Decarboxylase Activity [1] | Fold Activity [2] |
| --- | --- | --- | --- | --- |
| B1 | showed decarboxylation activity of dicamba | High | High | 1.6 |
| B2 | – | Low | Low | 1.6 |
| B3 | showed decarboxylation activity of dicamba | High | High | 1.6 |
| B4 | showed decarboxylation activity of dicamba | High | High | 1.9 |
| B5 | – | Low | Low | 1.8 |
| B6 | showed decarboxylation activity of dicamba | High | High | 0.8 |
| B7 | showed decarboxylation activity of dicamba | High | High | 1.1 |
| B8 | – | No | No | 1.5 |
| B9 | showed decarboxylation activity of dicamba | High | High | 1.2 |
